For data set [1] the following is noted: mouse, in vivo.
Description: Control (saline-injected) mice were euthanized early due to tumor ulceration, in compliance with IACUC policy. […] FIG. 30E, TUNEL staining and quantification in liver and kidney tissue obtained from treated mice. Micrographs obtained at 20× magnification (left set of panels) show fluorescently-stained nuclei in apoptotic cells (delineated areas are enlarged in micrographs to the right). Graph summarizes relative fluorescence intensities of each treated tissue (N>200 fields per treatment).
Fixed, sectioned tissues were processed by incubation in a dry 60° C. oven for 1 h followed by sequential submersion in xylenes for 4 min×5, then hydration in 100%, 95%, 90%, 80%, 70% ethanol for 3 min, 2 times each and final submersion in water. After Proteinase K (20 ug/ml in 10 mM Tris pH 7.8) incubation and rinsing in PBS, sections were treated for TUNEL staining following the manufacturer's instructions (XXX) and assessed by confocal fluorescence imaging. Here, 10 TUNEL images at different locations per tissue were acquired using a Leica confocal SPE microscope (20×, ex: 488 nm, and em: 530 nm). Central regions of each tissue were imaged to avoid fixation artifacts. Nuclear fluorescence intensities, reflective of DNA fragmentation, were measured and averaged using ImageJ.
For the next data set, the system named is MDA-MB-231 (HER2−) cells. The experiment in a line: HerDox targeted toxicity in vitro, separate cultures. The class given is cell-based, human. The conditions noted are these: MDA-MB-231, day 3. Here is the method: (§1) All treatments, N=3. FIG. 27A. Comparing cytotoxicity to HER2+ (MDAMB-435) and HER2− (MDA-MB-231) cells in separate cultures. Left, Relative survival (as % of untreated cells) on day 3 of treatment. Right, Micrograph of live cells after treatment. Control, mock (HBS) treatment. FIG. 27B, Receptor specificity of cytotoxicity. […] FIG. 27C, Toxicity to cells displaying differential HER2. Cytotoxicities from HerDox titrations were assessed on each cell line by metabolic assay and confirmed by crystal violet stain on day 3 of treatment. CD50 values (shown in log scale) were determined by non-linear regression analyses of HerDox killing curves using GraphPad Prism. The relative HER2 level of each cell line is shown next to each CD50 value. FIG. 27D, Targeting in a mixed MDA-MB-435(HER2+,GFP−)/MDA-MB-231(HER2−,GFP+) cell culture. Survival was determined by calculating the relative doubling time (DT) of experimental (exp) cells normalized by mock-treated (con) cells based on crystal violet stains (total cells) and GFP fluorescence (MDAMB-231 cells), and applying DTMDA-MB-435=DTTotal-DTMDA-MB-231 as previously described. Relative survival is shown for Day 2 of treatment. FIG. 27E, Targeted glioma cell death in vitro. U251 cells were treated once with the indicated HerDox (and competitive inhibitor where indicated) or Dox doses and measured for cell survival at the indicated time points after treatment. * P<0.05 compared to Mock.
For all in vitro treatments, cell lines were grown for ˜36 h after plating (104/well in 96-well dishes) to allow receptor re-expression, followed by media replacement with new media containing indicated constructs in reduced volume at the indicated final molarities for 4 h with rocking, followed by supplementation with additional media and continued growth for the indicated time periods. Except for the experiments performed on the U251 glioma cells (which received a one-time treatment), cells received these treatments daily while separate sets of wells were assessed for cell death by either metabolic assay (CellTiter Promega Corporation, Madison, WI, USA) or crystal violet stain each day. Where indicated, cells received competitive inhibitor (eHRG) at 10× molar excess for 30 min-1 h at 4° C. before treatment. Treatment of mixed (HER2+/HER2−) cell cultures with HerDox or Dox (0.5 uM), and cell surface receptor subunit level determination were performed as previously described.

Data set [2] can be described thus: TUNEL staining of liver and kidney tissue of treated mice. Conditions: mouse, in vivo.
The test system of another data set is MDA-MB-231. Kind of data set: HerDox cytotoxicity dose curves (metabolic assay, crystal violet). The class given is cell-based, human. Conditions: MDA-MB-231, low HER2; day 3; read-out: CD50 (the source's name). Here is the method: (§2) FIG. 21 depicts, in accordance with an embodiment herein, toxicity to cells displaying differential HER2. Cytotoxicities from a range of HerDox doses were assessed on each cell line by metabolic assay and confirmed by crystal violet stain. CD50 values (shown in log scale) were determined by non-linear regression analyses of HerDox dose curves using a scientific graphing program (GraphPad Prism) and confirmed with an on-line calculator (Chang bioscience). The relative HER2 level of each cell line is shown next to each CD50 value.
as §1, with “FIG. 27D, Targeting in a mixed MDA-MB-435(HER2+,GFP−)/MDA-MB-231(HER2−,GFP+) cell culture.” left out, “Relative survival is shown for Day 2 of treatment. FIG. 27E, Targeted glioma cell death in vitro.” left out, “Mock. […]” for “Mock.”
(§3) To assess the contribution of HER2 to therapeutic efficacy in vitro, we determined HerDox CD50 on selected human tumor lines displaying HER2 at relatively high (SKBR3), moderate (MDA-MB-435, MDAMB-453, HeLa), and low to undetectable (MDA-MB-231) levels, according to our receptor subunit profiling of a cell line panel.

Data set [3] concerns MDA-MB-435, MDAMB-453, HeLa. The description is as above. It is filed as cell-based, human. Conditions: intermediate HER2 levels; day 3; read-out: CD50 (the source's name). How it is done:
as §2
as §1, with “FIG. 27D, Targeting in a mixed MDA-MB-435(HER2+,GFP−)/MDA-MB-231(HER2−,GFP+) cell culture.” left out, “Relative survival is shown for Day 2 of treatment. FIG. 27E, Targeted glioma cell death in vitro.” left out, “Mock. […]” for “Mock.”
as §3

The subject of the next data set is SKBR3. The data set is described as above. The class given is cell-based, human. The conditions noted are these: SKBR3, high HER2; day 3; read-out: CD50 (the source's name). How it is done:
as §2
as §1, with “FIG. 27D, Targeting in a mixed MDA-MB-435(HER2+,GFP−)/MDA-MB-231(HER2−,GFP+) cell culture.” left out, “Relative survival is shown for Day 2 of treatment. FIG. 27E, Targeted glioma cell death in vitro.” left out, “Mock. […]” for “Mock.”
as §3

A short description of data set [4]: CryoEM of HerDox particles. The class given is physicochemical. The conditions noted are these: mostly round particles.
Protocol: Sample preparation and imaging was performed by NanoImaging Services, Inc., La Jolla, CA, USA.
CryoEM was performed by NanoImaging Services, Inc. (La Jolla, CA, USA) implementing the following procedures (provided by NanoImaging Services, Inc.): Samples were preserved in vitrified ice supported by carbon coated holey carbon films on 400 mesh copper grids. All samples were prepared by applying a 3 μL drop of undiluted sample suspension to a cleaned grid, blotting away with filter paper and immediately proceeding with vitrification in liquid ethane. Grids were stored under liquid Nitrogen until transferred to the electron microscope for imaging. All grids were prepared the day the sample was delivered (complexes were assembled immediately before delivery). Electron microscopy was performed using an FEI Tecnai T12 electron microscope, operating at 120 KeV equipped with an FEI Eagle 4K×4K CCD camera. Vitreous ice grids were transferred into the electron microscope using a stage that maintains the grids at below −170 C. Images of the grid were acquired at multiple scales to assess the overall distribution of the specimen. After identifying potentially suitable target areas for imaging at lower magnifications, higher magnification images were acquired at nominal magnifications of 52,000× (0.21 nm/pixel) and 21,000× (0.50 nm/pixel). […]
The nature of data set [5]: Stability in complete cell culture media. The conditions noted are these: up to 24 h. It is filed as in vitro ADME. How it is done: FIG. 34A, HerDox stability in different storage conditions. HerDox was incubated at indicated times and temperatures was applied to a 10K mwco ultrafiltration membrane every other day, and retentate and filtrate A480 measured to determine relative Dox retention or release from complexes, respectively. […] FIG. 34B, Assessing stability in serum-containing media by ultrafiltration. HerDox immobilized on Ni-NTA beads (Qiagen Inc., Valencia. CA, USA) by incubation on ice for 2 h with agitation followed by free HerDox removal via bead pelleting/washing in HBS received 10% fetal bovine serum (FBS), to mimic cell culture conditions, and incubated at 37° C. with agitation for the indicated time-points. At each time-point, samples were pelleted and mean A480±SD (N=3) of supernatants (Released) and bead eluates (Retained) were measured. […] Relative Dox release or retention in serum is expressed as normalized to control (corresponding serum-lacking sample). […] Dox fluorescence (top panel) was visualized by UV excitation. […] Dox (1.6 nmoles) was added to serum coated wells and incubated for 30 min at 37° C. with agitation before supernatants were removed and the wells washed once with HBS before fluorescence spectra were measured for pre-incubation sample (Input), supernatant (Free) and wells (Serum-bound). Fluorescence spectra were obtained at Ex 485 nm/Em 520-750 nm with a 515 nm cutoff filter.

Data set [6] is described as follows: Stability in blood, ultrafiltration. The class given is in vitro ADME. The conditions noted are these: 1 h at 37° C. in mouse blood. The source says:
FIG. 26A. Stability in blood. […] N=3. […] FIG. 26C. Assessing Dox retention in serum.

The record followed here is US11795454B2, “Targeted delivery system” (Cedars-Sinai Medical Center, priority 2009, dated 2023).

Entries after “also recorded” stand apart in the source; their conditions may differ. Read-outs that look alike come from different tables or passages of the source.

Take `COc1cccc2c1C(=O)c1c(O)c3c(c(O)c1C2=O)C[C@@](O)(C(=O)CO)C[C@@H]3O[C@H]1C[C@H](N)[C@H](O)[C@H](C)O1.Cl` [Dox, Doxorubicin-HCl, reference compound]: in data set [1], the “apoptosis in the kidney (TUNEL)” value is “Neither Dox nor HerDox showed substantial apoptosis” and the “apoptosis in the liver (TUNEL)” value is given as “marked apoptosis”. Besides, in the data set with MDA-MB-231 (HER2−) cells, the toxicity / survival result is given as “no preference”.

B1: HerDox: self-assembled nanoparticle of oligonucleotide duplex, doxorubicin and HerPBK10 (conjugate)
chain: LPPRLKEMKSQESAAGSKLVLRCETSSEYSSLRFKWFKNGNELNRKNKPQNIKIQKKPGKSELRINKASLADSGEYMCKVISKLGNDSASANITIVESNEIITGMPASTEGAYVSSESPIRISVSTEGANTSSSTSTSTTGTSHLVKCAEKEKTFCVNGGECFMVKDLSNPSRYLCKCQPGFTGARCTENVPMKVQNQEKAEELYMRRAAMYEEGPPPSYESVVSAAPVAAALGSPFDAPLDPPFVPPRYLRPTGGRNSIRYSELAPLFDTTRVYLVDNKSTDVASLNYQNDHSNFLTTVIQNNDYSPGEASTQTINLDDRSHWGGDLKTILHTNMPNVNEFMFTNKFKARVMVSRLPTKDNQVELKYEWVEFTLPEGNYSETMTIDLMNNAIVEHYLKVGRQNGVLESDIGVKFDTRNFRLGFDPVTGLVMPGVYTNEAFHPDIILLPGCGVDFTHSRLSNLLGIRKRQPFQEGFRITYDDLEGGNIPALLDVDAYQASLKDDTEQGGGGAGGSNSSGSGAEENSNAAAAAMQPVEDMNDHAIRGDTFATRAEEKRAEAEAAAEAAAPAAQPEVEKPQKKPVIKPLTEDSKKRSYNLISNDSTFTQYRSWYLAYNYGDPQTGIRSWTLLCTPDVTCGSEQVYWSLPDMMQDPVTFRSTRQISNFPVVGAELLPVHSKSFYNDQAVYSQLIRQFTSLTHVFNRFPENQILARPPAPTITTVSENVPALTDHGTLPLRNSIGGVQRVTITDARRRTCPYVYKALGIVSPRVLSSRTFKKKKKKKKKK
B1: the “apoptosis in the kidney (TUNEL)” value in data set [2] is reported as “Neither Dox nor HerDox showed substantial apoptosis”. Also, in data set [2], the “apoptosis in the liver (TUNEL)” value is listed as “did not; also recorded: negligible apoptosis”. In addition, the IC50 with MDA-MB-231 is above 8000 nM; in [3], 300 to 800 nM; with SKBR3, 56 ± 17 nM. The particle diameter in data set [4] is around 10 nm. For the same molecule, the “loss of Dox in complete cell culture media” value in data set [5] is “no loss of Dox from the complex”. Besides, the “Dox release in blood (filtrate/retentate fluorescence)” value in [6] is “no detectable fluorescence in filtrates nor loss from retentates”.
